Data from patent publication US9340577B2, “HLA binding motifs and peptides and their uses” (priority 1992, dated 2016).
No end group written: not given here.

Experiments:
HLA-A*0201 (HLA-A2.1) = HLA-A*0201 (HLA-A2.1) (Homo sapiens, UniProt P04439, D140Y/D185E/D98H/E176V/E277Q/G131W/G231S/I119V/I121R/I166T/I218V/L300P/L318F/N151K/N90K/P208A/P217A/Q86G/Q94H/R138H/R169H/T345S); assay: biochemical; assay type: binding
HLA-A3.2 (A*0301) = HLA-A3.2 (A*0301) (Homo sapiens, UniProt P04439); assay: biochemical; assay type: binding; settings: Table 164, MAGE peptides; binding value to HLA-A3.2, no unit given
HLA-A11 (A*1101) = HLA-A11 (A*1101) (Homo sapiens, UniProt P04439, A114D/D185E/E176A/F33Y/L180Q/S129P/T187R); assay: biochemical; assay type: binding; parameters: A11: unit not given here
A2.1 HLA molecules = A2.1 HLA molecules (Homo sapiens, UniProt P04439, D140Y/D185E/D98H/E176V/E277Q/G131W/G231S/I119V/I121R/I166T/I218V/L300P/L318F/N151K/N90K/P208A/P217A/Q86G/Q94H/R138H/R169H/T345S); assay type: binding; parameters: A*0201 / A2.1 Binding / A2 Bind. / A2 / A2.1 (binding capacity): scale not given here
DRB5*0101 = DRB5*0101 (Homo sapiens, UniProt P01903+Q30154); assay: biochemical; settings: DRB5*0101

Sequence | A2 Bind. (A2.1 HLA molecules) | A2.1 relative binding (ratio of binding of test peptide relative to standard peptide) (A2.1 HLA molecules) | other results
SLHCKPEEA | 0.0130 | 0.013 | A2.1 (HLA-A*0201 (HLA-A2.1)): 0.013; A3.2 (HLA-A3.2 (A*0301)): <0.0002; A11 (HLA-A11 (A*1101)): 0
SMHCKPEEV | 0.0180 | – | binding to HLA-A2.1 (column 3; no allele head shown for these rows) (HLA-A*0201 (HLA-A2.1)): 0.018
TAEYGDKWLDAKSTWYGKPT [Peptide 620.02] | – | – | IC50 (DRB5*0101): 10 µM
VMIAMEGGHV | 0.0530 | – | binding to HLA-A2.1 (column 3; no allele head shown for these rows) (HLA-A*0201 (HLA-A2.1)): 0.053
VTTEVAFGL | 0.0360 | – | –
VVSYVNVNM | 0.0100 | – | –
WEELSVMEV | – | 0 | binding to HLA-A2.1 (column 3; no allele head shown for these rows) (HLA-A*0201 (HLA-A2.1)): 0
WGLLGFAA | – | 0.0009 | –
WLKLLRDAL | – | – | A2.1 Binding (A2.1 HLA molecules): 0
WLLRGTSFV [listing 1 of 2 here] | 0.1000 | – | –
WLLRGTSFV [listing 2 of 2 here] | – | 0.10 | –
WLVTNGSYL | 0.0180 | – | –
WMELSVMEV [listing 1 of 2 here] | 0.0410 | – | binding to HLA-A2.1 (column 3; no allele head shown for these rows) (HLA-A*0201 (HLA-A2.1)): 0.041
WMELSVMEV [listing 2 of 2 here] | – | 0.041 | –
WMWFPSVLL | 0.0360 | – | A2.1 Binding (A2.1 HLA molecules): 0.036
YALTVVWLL | 0.0415 | – | –
YEFLWGPRA | – | 0 | binding to HLA-A2.1 (column 3; no allele head shown for these rows) (HLA-A*0201 (HLA-A2.1)): 0

Sequence | A2 Bind. (A2.1 HLA molecules) | A2.1 relative binding (ratio of binding of test peptide relative to standard peptide) (A2.1 HLA molecules) | other results
YLCCGITLL | 0.0210 | – | A2.1 Binding (A2.1 HLA molecules): 0.021
YLHTLWKAGV [listing 1 of 2 here] | 0.1500 | – | A2 (A2.1 HLA molecules): 0.1300
YLHTLWKAGV [listing 2 of 2 here] | – | 0.15 | –
YLLDLQEPV [listing 1 of 2 here] | 0.2200 | – | –
YLLDLQEPV [listing 2 of 2 here] | – | 0.22 | –
YLLLYFSPV | 0.7500 | – | A2.1 Binding (A2.1 HLA molecules): 0.75
YLLPRRGPRL | – | – | A2 (A2.1 HLA molecules): 0.0730
YLPSALNPV [listing 1 of 2 here] | 0.3200 | – | –
YLPSALNPV [listing 2 of 2 here] | – | 0.32 | –
YLQLVFGIEV | 0.3700 | – | binding to HLA-A2.1 (column 3; no allele head shown for these rows) (HLA-A*0201 (HLA-A2.1)): 0.37
YLYGVGSAV | 0.1600 | – | –
YLYRLNFCL | 0.7200 | – | A2.1 Binding (A2.1 HLA molecules): 0.72
YMFLWGPRV [listing 1 of 2 here] | 0.2200 | – | binding to HLA-A2.1 (column 3; no allele head shown for these rows) (HLA-A*0201 (HLA-A2.1)): 0.22
YMFLWGPRV [listing 2 of 2 here] | – | 0.22 | –
YMLDLQPET | 1.4000 | 1.4 | –
YMLDLQPEV [listing 1 of 2 here] | 1.9000 | – | –
YMLDLQPEV [listing 2 of 2 here] | – | 1.9 | –
